# Experimental data as given in IntAct's records for PubMed 24910198.
# B1: SWI/SNF-related matrix-associated actin-dependent regulator of chromatin subfamily A-like protein 1 (Homo sapiens), Q9NZC9 (parent)
# chain: MSLPLTEEQRKKIEENRQKALARRAEKLLAEQHQRTSSGTSIAGNPFQAKQGPSQNFPRESCKPVSHGVIFKQQNLSSSSNADQRPHDSHSFQAKGIWKKPEEMPTACPGHSPRSQMALTGISPPLAQSPPEVPKQQLLSYELGQGHAQASPEIRFTPFANPTHKPLAKPKSSQETPAHSSGQPPRDAKLEAKTAKASPSGQNISYIHSSSESVTPRTEGRLQQKSGSSVQKGVNSQKGKCVRNGDRFQVLIGYNAELIAVFKTLPSKNYDPDTKTWNFSMNDYSALMKAAQSLPTVNLQPLEWAYGSSESPSTSSEGQAGLPSAPSLSFVKGRCMLISRAYFEADISYSQDLIALFKQMDSRRYDVKTRKWSFLLEEHSKLIAKVRCLPQVQLDPLPTTLTLAFASQLKKTSLSLTPDVPEADLSEVDPKLVSNLMPFQRAGVNFAIAKGGRLLLADDMGLGKTIQAICIAAFYRKEWPLLVVVPSSVRFTWEQAFLRWLPSLSPDCINVVVTGKDRLTAGLINIVSFDLLSKLEKQLKTPFKVVIIDESHFLKNSRTARCRAAMPVLKVAKRVILLSGTPAMSRPAELYTQIIAVKPTFFPQFHAFGLRYCDAKRMPWGWDYSGSSNLGELKLLLEEAVMLRRLKSDVLSQLPAKQRKIVVIAPGRINARTRAALDAAAKEMTTKDKTKQQQKDALILFFNRTAEAKIPSVIEYILDLLESGREKFLVFAHHKVVLDAITQELERKHVQHIRIDGSTSSAEREDLCQQFQLSERHAVAVLSITAANMGLTFSSADLVVFAELFWNPGVLIQAEDRVHRIGQTSSVGIHYLVAKGTADDYLWPLIQEKIKVLAEAGLSETNFSEMTESTDYLYKDPKQQKIYDLFQKSFEKEGSDMELLEAAESFDPGSASGTSGSSSQNMGDTLDESSLTASPQKKRRFEFFDNWDSFTSPL
# B2: TIMELESS-interacting protein (Homo sapiens), Q9BVW5 (parent)
# chain: MLEPQENGVIDLPDYEHVEDETFPPFPPPASPERQDGEGTEPDEESGNGAPVRVPPKRTVKRNIPKLDAQRLISERGLPALRHVFDKAKFKGKGHEAEDLKMLIRHMEHWAHRLFPKLQFEDFIDRVEYLGSKKEVQTCLKRIRLDLPILHEDFVSNNDEVAENNEHDVTSTELDPFLTNLSESEMFASELSRSLTEEQQQRIERNKQLALERRQAKLLSNSQTLGNDMLMNTPRAHTVEEVNTDEDQKEESNGLNEDILDNPCNDAIANTLNEEETLLDQSFKNVQQQLDATSRNITEAR
# Variants of: B1
# Conditions: with rfa2_human RPA2, P15927
row,effect of a mutation on the interaction,Variant
1,decreasing interaction,K12A;I13A

# Variants of: B1
# Conditions: with rfa2_human RPA2, P15927
# Remark: another data set of the same source
# Target sequence in this assay (P15927 whole entry): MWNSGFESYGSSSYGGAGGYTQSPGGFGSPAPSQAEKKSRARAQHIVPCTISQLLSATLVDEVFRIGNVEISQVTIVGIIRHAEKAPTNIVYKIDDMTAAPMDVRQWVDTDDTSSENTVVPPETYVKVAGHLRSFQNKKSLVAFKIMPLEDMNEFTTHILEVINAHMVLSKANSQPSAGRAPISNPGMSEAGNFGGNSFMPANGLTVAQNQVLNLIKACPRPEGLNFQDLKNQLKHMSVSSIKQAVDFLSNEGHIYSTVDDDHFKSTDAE
row,effect of a mutation on the interaction,Variant
1,decreasing interaction,L5A

# Variants of: B1
# Conditions: with rfa2_human RPA2, P15927
# Remark: another data set of the same source
# Target sequence in this assay (P15927 whole entry): as above
row,effect of a mutation on the interaction,Variant
1,decreasing interaction,K27A

# Variants of: B1
# Conditions: with rfa2_human RPA2, P15927
# Remark: another data set of the same source
# Target sequence in this assay (P15927 whole entry): as above
row,effect of a mutation on the interaction,Variant
1,decreasing interaction,N16A;R17A

# Variants of: B1
# Conditions: with rfa2_human RPA2, P15927
# Remark: another data set of the same source
# Target sequence in this assay (P15927 whole entry): as above
row,effect of a mutation on the interaction,Variant
1,decreasing interaction,A20S;L21S

# Variants of: B1
# Conditions: with rfa2_human RPA2, P15927
# Remark: another data set of the same source
# Target sequence in this assay (P15927 whole entry): as above
row,effect of a mutation on the interaction,Variant
1,decreasing interaction,R17A;Q18A;K19A

# Variants of: B1
# Conditions: with rfa2_human RPA2, P15927
# Remark: another data set of the same source
# Target sequence in this assay (P15927 whole entry): as above
row,effect of a mutation on the interaction,Variant
1,decreasing interaction,Q9A

# Variants of: B2
# Conditions: with rfa2_human RPA2, P15927
row,effect of a mutation on the interaction,Variant
1,decreasing interaction,L195A
